Changes are numbered by the printed parent chain. Where two headings read alike, the source gives them in different places. Each block holds one binder with its values, some of them ahead of it.
What was measured:
[1] = biological target: T1, human FcγRIIa type R extracellular domain with C-terminal His tag (human, UniProt P12318 34-217); test: SPR
T1 sequence (looked up): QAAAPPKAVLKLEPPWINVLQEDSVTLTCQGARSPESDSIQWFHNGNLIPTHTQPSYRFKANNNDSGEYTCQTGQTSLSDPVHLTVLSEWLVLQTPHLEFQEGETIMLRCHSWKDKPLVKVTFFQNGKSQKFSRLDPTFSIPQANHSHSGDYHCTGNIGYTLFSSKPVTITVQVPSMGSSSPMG

[2] = biological target: T2, human FcγRIIa type H extracellular domain with C-terminal His tag (human, UniProt P12318 34-217); test: SPR
T2 sequence (looked up): T1 sequence (looked up) with R134H

[3] = biological target: T3, human FcγRIIb extracellular domain with C-terminal His tag (human, UniProt P31994 43-217); test: SPR
T3 sequence (looked up): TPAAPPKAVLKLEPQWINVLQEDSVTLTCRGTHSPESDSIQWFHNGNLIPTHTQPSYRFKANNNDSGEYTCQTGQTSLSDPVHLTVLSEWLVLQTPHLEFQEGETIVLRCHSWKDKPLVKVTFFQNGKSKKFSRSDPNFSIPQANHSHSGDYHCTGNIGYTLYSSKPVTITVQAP

[4] = biological target: T3, human FcγRIIb extracellular domain with …; test: SPR; remark: listed apart in the source
[5] = biological target: T4, human FcγRIIIa type V extracellular domain with C-terminal His tag (human, UniProt P08637 17-208); test: SPR
T4 sequence (P08637 17-208 F176V): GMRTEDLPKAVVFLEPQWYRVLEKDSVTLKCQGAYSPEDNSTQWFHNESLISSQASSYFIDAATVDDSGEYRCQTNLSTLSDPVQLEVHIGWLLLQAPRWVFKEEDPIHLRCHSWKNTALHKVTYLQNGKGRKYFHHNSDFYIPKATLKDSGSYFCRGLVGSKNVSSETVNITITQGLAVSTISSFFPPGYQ

[6] = biological target: T3, human FcγRIIb extracellular domain with …; test: SPR; remark: listed apart in the source
[7] = biological target: T5, human FcγRIIa type R extracellular domain with C-terminal His tag (human, UniProt P12318 34-217); test: SPR; remark: listed apart in the source
T5 sequence (looked up): T1 sequence (looked up)

[8] = biological target: T6, human FcγRIIb extracellular domain with C-terminal His tag (human, UniProt P31994 43-217); test: ratio of SPR KD values
T6 sequence (looked up): T3 sequence (looked up)

[9] = biological target: T7, human FcγRIIb extracellular domain with C-terminal His tag (human, UniProt P31994 43-217); test: SPR Biacore, ratio of KDs
T7 sequence (looked up): T3 sequence (looked up)

[10] = biological target: T8, human FcγRIIa type H extracellular domain with C-terminal His tag (human, UniProt P12318 34-217); test: SPR Biacore, KD by Equation 2
T8 sequence (looked up): T1 sequence (looked up) with R134H

[11] = biological target: human FcγRIa extracellular domain with C-terminal His tag (human, UniProt P12314 16-292); test: SPR
Target sequence in this assay (P12314 16-292): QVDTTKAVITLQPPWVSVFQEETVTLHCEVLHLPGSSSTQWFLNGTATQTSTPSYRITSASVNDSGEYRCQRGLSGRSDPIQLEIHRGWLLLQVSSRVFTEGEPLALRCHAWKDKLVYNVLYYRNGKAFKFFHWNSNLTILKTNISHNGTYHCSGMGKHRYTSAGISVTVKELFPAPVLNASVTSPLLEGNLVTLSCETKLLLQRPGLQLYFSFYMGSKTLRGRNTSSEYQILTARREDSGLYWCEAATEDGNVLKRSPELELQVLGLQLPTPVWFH

[12] = biological target: T9, human FcγRIIa type H extracellular domain with C-terminal His tag (human, UniProt P12318 34-217); test: SPR; remark: listed apart in the source
T9 sequence (looked up): T1 sequence (looked up) with R134H

[13] = biological target: T10, human FcγRIIa type R (131Arg) extracellular domain with C-terminal His tag (human, UniProt P12318 34-217); test: SPR
T10 sequence (looked up): T1 sequence (looked up)

[14] = biological target: T11, human FcγRIIa type H (131His) extracellular domain with C-terminal His tag (human, UniProt P12318 34-217); test: SPR
T11 sequence (looked up): T1 sequence (looked up) with R134H

[15] = biological target: T10, human FcγRIIa type R (131Arg) …; test: ratio of SPR KDs
[16] = biological target: T4, human FcγRIIIa type V extracellular …; test: SPR; remark: listed apart in the source
[17] = biological target: human FcγRIa extracellular domain with C-terminal His tag (human, UniProt P12314 16-292); test: SPR; remark: listed apart in the source
Target sequence in this assay (P12314 16-292): as above

[18] = biological target: T6, human FcγRIIb extracellular domain with …; test: SPR; remark: listed apart in the source
[19] = biological target: T12, human FcγRIIa type H extracellular domain with C-terminal His tag (human, UniProt P12318 34-217); test: SPR; remark: listed apart in the source
T12 sequence (looked up): T1 sequence (looked up) with R134H

[20] = biological target: human FcγRIIIa type V extracellular domain with C-terminal His tag (human, UniProt P08637 17-208); test: SPR; remark: listed apart in the source
Target sequence in this assay (P08637 17-208 F176V): as the sequence (P08637 17-208 F176V) above

[21] = biological target: T13, human FcγRIIa type R extracellular domain with C-terminal His tag (human, UniProt P12318 34-217); test: SPR Biacore, kinetic fit
T13 sequence (looked up): T1 sequence (looked up)

[22] = biological target: T3, human FcγRIIb extracellular domain with …; test: SPR; remark: listed apart in the source
[23] = biological target: human FcγRIIIa type V extracellular domain with C-terminal His tag (human, UniProt P08637 17-208); test: SPR; remark: listed apart in the source
Target sequence in this assay (P08637 17-208 F176V): as above

[24] = biological target: T14, human FcγRIIa type R extracellular domain with C-terminal His tag (human, UniProt P12318 34-217); test: SPR; remark: listed apart in the source
T14 sequence (looked up): T1 sequence (looked up)

- Kd [1]: 80 µM
B1: IL6R-BP132/IL6R-L (antibody, human IgG1, kappa)
heavy: QVQLQESGPGLVKPSETLSLTCAVSGHSISHDHAWSWVRQPPGEGLEWIGFISYSGITNYNPSLQGRVTISRDNSKNTLYLQMNSLRAEDTAVYYCARSLARTTAMDYWGEGTLVTVSSASTKGPSVFPLAPSSKSTSGGTAALGCLVKDYFPEPVTVSWNSGALTSGVHTFPAVLQSSGLYSLSSVVTVPSSSLGTQTYICNVNHKPSNTKVDKKVEPKSCDKTHTCPPCPAPDLLGGDSVFLFPPKPKDTLMISRTPEVTCVVVDVSHEDPEVKFNWYVDGVEVHNAKTKPREEQYNSTYRVVSVLTVLHQDWLNGKEYKCKVSNAALPKPIEKTISKAKGQPREPQVYTLPPSRDELTKNQVSLTCLVKGFYPSDIAVEWESNGQPENNYKTTPPVLDSDGSFFLYSKLTVDKSRWQQGNVFSCSVMHEALHNHYTQESLSLSP
light: not shown

- Kd [2]: 4.8 µM
- KD (IIaH)/KD (IIb) [3]: 803
- KD (IIaR)/KD (IIb) [4]: 36.8
B2: IL6R-BP540/IL6R-L (antibody, human IgG1, kappa)
heavy: B1 heavy with D235E, G239D, V266I, H270E, P273G, E274P, Y298D, A328K, K332R
light: not shown

- Kd [5]: 3.8 µM
B3: IL6R-BP253/IL6R-L (antibody, human IgG1, kappa)
heavy: B1 heavy with D235E, D240P, S269E, A328K, L330F, K332A
light: not shown

- Kd [6]: 2100 nM
- KD (IIaH)/KD (IIb) [3]: 514
- KD (IIaR)/KD (IIb) [4]: 20
B4: BP505 (antibody, human IgG1, kappa)
heavy: B1 heavy with G239D, V266I, S269A, H270E, P273G, E274D, A328K, K332A
light: not shown

- Kd [7]: 16 nM
- KD (IIaH)/KD (IIb) [3]: 712
- KD (IIaR)/KD (IIb) [4]: 58.4
B5: IL6R-BP559/IL6R-L (antibody, human IgG1, kappa)
heavy: B1 heavy with D235E, V266I, S269A, H270E, P273G, E274D, Y298D, A328K, K332A
light: not shown

- KD (IIb) of the parent polypeptide/KD (IIb) of the altered polypeptide [8]: 15.7 fold
B6: IL6R-BP198/IL6R-L (antibody, human IgG1, kappa)
heavy: B1 heavy with L236Y, H270D, P273G
light: not shown

- KD (IIb) of the parent polypeptide/KD (IIb) of the altered polypeptide [9]: 3.3 fold (parent IL6R-B3/IL6R-L)
- Kd [10]: 32 µM
B7: IL6R-BP107/IL6R-L (antibody, human IgG1, kappa)
heavy: B1 heavy with D235E, H270E, A328K, K332A
light: not shown

- Kd [11]: 1400 nM
B8: IL6R-BP269/IL6R-L (antibody, human IgG1, kappa)
heavy: B1 heavy with D235E, G239D, H270E, P273G, Y298D, A328K, K332A
light: not shown

- KD (IIb) of the parent polypeptide/KD (IIb) of the altered polypeptide [9]: 2.9 fold (parent IL6R-B3/IL6R-L)
- Kd [10]: 340 µM
B9: IL6R-2B171/IL6R-L (antibody, human IgG1, kappa)
heavy: B1 heavy with D235E, V325L, A328K, K332A
light: not shown

- Kd [12]: 28 µM
B10: IL6R-BP181/IL6R-L (antibody, human IgG1, kappa)
heavy: B1 heavy with P273G
light: not shown

- Kd [13]: 35 nM
- Kd [14]: 850 nM
- KD (IIaR) of parent polypeptide/KD (IIaR) of altered polypeptide [15]: 12.9
- Kd [16]: 20 µM
B11: IL6R-BP497/IL6R-L (antibody, human IgG1, kappa)
heavy: B1 heavy with G239D, V266I, S269A, H270E, P273G, A328K, A329G, K332R
light: not shown

- KD (IIb) of the parent polypeptide/KD (IIb) of the altered polypeptide [8]: 6.3 fold
- Kd [17]: 6.4 nM
- Kd [18]: 490 nM
- Kd [19]: 28 µM
- Kd [20]: 61 µM
B12: IL6R-BP199/IL6R-L (antibody, human IgG1, kappa)
heavy: B1 heavy with K332R
light: not shown

- Kd [21]: 99 nM
- KD (IIb) of the parent polypeptide/KD (IIb) of the altered polypeptide [9]: 2.7 fold (parent IL6R-B3/IL6R-L)
B13: IL6R-BP119/IL6R-L (antibody, human IgG1, kappa)
heavy: B1 heavy with D235E, A328M, K332A
light: not shown

- Kd [12]: 18 µM
B14: IL6R-BP179/IL6R-L (antibody, human IgG1, kappa)
heavy: B1 heavy with D235E, G239D, P273G
light: not shown

- KD (IIb) of parent polypeptide/KD (IIb) of altered polypeptide [22]: 507
- KD (IIaH)/KD (IIb) [3]: 566
- KD (IIaR)/KD (IIb) [4]: 30.6
B15: IL6R-BP538/IL6R-L (antibody, human IgG1, kappa)
heavy: B1 heavy with D235E, G239D, V266I, H270E, P273G, A328K, K332R
light: not shown

- Kd [1]: 14 µM
B16: IL6R-BP149/IL6R-L (antibody, human IgG1, kappa)
heavy: B1 heavy with L236Y, G239D, Y298D
light: not shown

- Kd [23]: 69 µM
B17: IL6R-BP133/IL6R-L (antibody, human IgG1, kappa)
heavy: B1 heavy with L236Y, A328K
light: not shown

- Kd [21]: 5600 nM
- KD (IIb) of the parent polypeptide/KD (IIb) of the altered polypeptide [9]: 3 fold (parent IL6R-B3/IL6R-L)
B18: IL6R-BP120/IL6R-L (antibody, human IgG1, kappa)
heavy: B1 heavy with D235E, A328E, K332A
light: not shown

- Kd [23]: 0.054 µM
B19: IL6R-BP176/IL6R-L (antibody, human IgG1, kappa)
heavy: B1 heavy with A328D
light: not shown

- Kd [11]: 1400 nM
B20: IL6R-BP266/IL6R-L (antibody, human IgG1, kappa)
heavy: B1 heavy with G239D, H270E, P273G, A328K, K332R
light: not shown

- Kd [6]: 2.2 nM
- KD (IIaH)/KD (IIb) [3]: 454
- KD (IIaR)/KD (IIb) [4]: 26.2
B21: BP564 (antibody, human IgG1, kappa)
heavy: B1 heavy with D235E, G239D, H270E, P273G, E274D, Y298D, A328K, K332R
light: not shown

- Kd [17]: 6.5 nM
- Kd [24]: 2500 nM
B22: IL6R-BP192/IL6R-L (antibody, human IgG1, kappa)
heavy: B1 heavy with H270D, P273G, Y298D, A328K
light: not shown
